System: bovine brain microvessel endothelial cells (BBMECs)
Assay: Metabolism of Dyn A 1–17 in the presence of BBMECs
Type: in vitro ADME
Details: incubation with bovine brain microvessel endothelial cells, LC-MS/MS

Dynorphin A 1–17 [Dyn A 1–17]
metabolite identified in the presence of BBMECs: Dyn A 1–6 is identified as a metabolite
